Experimental data reported in paper PMC3006384, “Phosphorylation of Mouse Immunity-Related GTPase (IRG) Resistance Proteins Is an Evasion Strategy for Virulent Toxoplasma gondii” (PLoS Biology, 2010).

B1: recombinant wt Irga6 (bacterially expressed, from pGEX-4T-2-Irga6) [mouse] / itself (parent)
chain: MGQLFSSPKSDENNDLPSSFTGYFKKFNTGRKIISQEILNLIELRMRKGNIQLTNSAISDALKEIDSSVLNVAVTGETGSGKSSFINTLRGIGNEEEGAAKTGVVEVTMERHPYKHPNIPNVVFWDLPGIGSTNFPPNTYLEKMKFYEYDFFIIISATRFKKNDIDIAKAISMMKKEFYFVRTKVDSDITNEADGKPQTFDKEKVLQDIRLNCVNTFRENGIAEPPIFLLSNKNVCHYDFPVLMDKLISDLPIYKRHNFMVSLPNITDSVIEKKRQFLKQRIWLEGFAADLVNIIPSLTFLLDSDLETLKKSMKFYRTVFGVDETSLQRLARDWEIEVDQVEAMIKSPAVFKPTDEETIQERLSRYIQEFCLANGYLLPKNSFLKEIFYLKYYFLDMVTEDAKTLLKEICLRN

Variants of: B1
Assay: light scattering (GTP-dependent oligomerisation)
Conditions: with itself, value read at the last time point, 60 min, parent: 0.61, read off a plot
MGQLFSSPKSDENNDLPSSFTGYFKKFNTGRKIISQEILNLIELRMRKGNIQLTNSAISDALKEIDSSVLNVAVTGETGSGKSSFINTLRGIGNEEEGAAKTGVVEVDMERHPYKHPNIPNVVFWDLPGIGSTNFPPNTYLEKMKFYEYDFFIIISATRFKKNDIDIAKAISMMKKEFYFVRTKVDSDITNEADGKPQTFDKEKVLQDIRLNCVNTFRENGIAEPPIFLLSNKNVCHYDFPVLMDKLISDLPIYKRHNFMVSLPNITDSVIEKKRQFLKQRIWLEGFAADLVNIIPSLTFLLDSDLETLKKSMKFYRTVFGVDETSLQRLARDWEIEVDQVEAMIKSPAVFKPTDEETIQERLSRYIQEFCLANGYLLPKNSFLKEIFYLKYYFLDMVTEDAKTLLKEICLRN [chain 1 T108D] was tested, and the response was 0.22 a.u.
